This assay has as its target T1, mouse HRt (hairless protein aa 490-1182) (Mus musculus, UniProt Q61645).
T1 construct: HR cDNA corresponding to the C-terminal half of HR protein (aa residues 490 to 1182, hereinafter HRt); expressed in transfected cells; host or cells: Saccharomyces cerevisiae PJ69-2A transformed with BD-HRt plasmid, mated with Y187 carrying the human brain cDNA library in pACT2
T1 sequence (Q61645 490-1182): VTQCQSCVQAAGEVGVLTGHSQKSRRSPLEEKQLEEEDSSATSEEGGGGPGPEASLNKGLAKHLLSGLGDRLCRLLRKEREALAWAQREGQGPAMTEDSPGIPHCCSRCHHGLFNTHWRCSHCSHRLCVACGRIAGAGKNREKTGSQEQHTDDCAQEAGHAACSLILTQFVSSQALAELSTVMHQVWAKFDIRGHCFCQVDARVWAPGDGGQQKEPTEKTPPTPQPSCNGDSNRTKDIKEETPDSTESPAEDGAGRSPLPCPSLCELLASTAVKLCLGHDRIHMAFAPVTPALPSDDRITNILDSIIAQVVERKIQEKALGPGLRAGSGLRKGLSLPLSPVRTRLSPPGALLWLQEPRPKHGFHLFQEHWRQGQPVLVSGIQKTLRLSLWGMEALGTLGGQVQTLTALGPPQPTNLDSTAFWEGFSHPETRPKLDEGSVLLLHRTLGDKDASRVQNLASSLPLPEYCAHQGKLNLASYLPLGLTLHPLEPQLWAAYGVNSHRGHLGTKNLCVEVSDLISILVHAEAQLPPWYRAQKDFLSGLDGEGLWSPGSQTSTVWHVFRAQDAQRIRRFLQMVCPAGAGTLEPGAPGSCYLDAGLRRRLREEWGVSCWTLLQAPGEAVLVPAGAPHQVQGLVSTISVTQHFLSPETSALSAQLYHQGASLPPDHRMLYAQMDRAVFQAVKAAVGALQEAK
The assay is described as follows: Yeast two-hybrid screen of BD-HRt against human brain cDNA library in AD vector, lacZ coloration on QDO-Xgal plates. It is filed as cell-based. To be noted: BD-HRt(mouse) x human brain cDNA library in AD-vector. An excerpt: The present example provides for Hairless Protein (HR) interacting partners (HR-IP) using the yeast two-hybrid technology. […] Yeast cells expressing BD-HRt are mated with yeast cells pretransformed with human brain cDNA library in the activation domain (AD) vector.
Cloning of HRt into GAL4 binding domain (BD) yeast two-hybrid (Y2H) vector: The HRt insert from pET32a-HRt is excised as an Eco RI-Xho I fragment (there is a unique Xho I site just adjacent to HRt insert) and inserted at the Eco RI-Sal I sites of Y2H-BD vector pGBKT7 (Catalog No. K1612-B; a component of Matchmaker two-hybrid System 3 (Catalog No. K1612-1) BD Biosciences Clontech, Palo Alto, Calif.) to obtain pGBKT7-HRt in which HRt is fused in-frame to GAL 4 DNA BD (this plasmid is also designated BD-HRt).
Pretransformed human brain […] cDNA Library Screen for HRt interaction partners: Pretransformed human brain […] high-complexity GAL4 cDNA library that has already been amplified and introduced into yeast strain Y187 (MATα) is used to screen for HRt interacting proteins. […] The library host strain Y187 provides a third reporter gene (lacZ) for optional quantification of signal strength. The protocol as described in Clontech user manual (PT3183-1) is used. Briefly, the library is mixed with PJ69-2A strain that has been transformed with the BD-HRt plasmid in YPD medium containing adenine hemisulfate (0.004%) and kanamycin (0.005%) and incubated for 20-24 h at 30° C. The next day, the mating mixture is plated on Leu, Trp, His TDO that selects for two-hybrid interactions, and then the positive clones are screened for growth on Leu, Trp, His, Ade QDO, which is a more stringent condition for interaction. Colonies that grew well on QDO are also screened for lacZ expression by streaking on QDO-Xgal plates. Based on a visual assessment of colonies for the intensity of blue color, the clones are classified into high (H), medium (M), low (L) or very low (VL) categories.
The positive clones are expected to contain an AD-IP (interacting partner) that interacts with BD-HRt. To characterize IP, the sequence of IP is determined and matched to the human genome database. For this purpose, total DNA is isolated from the positive clones and PCR amplified with […] AD LD (long distance)-insert screening amplimers (Catalog No.9103-1; BD Biosciences Clontech, PaloAlto, Calif.). Reaction is conducted in 50 μl volume for 35 cycles using the conditions recommended with the Advantage2 PCR kit (Catalog No. K1910-1; BD Biosciences Clontech, PaloAlto, Calif.).

B1: Human alpha-tubulin: human HRt interacting partner, GenBank AF141348, SEQ ID NO:50 (protein, listed as Homo sapiens)
chain: QSLGLLDQNPHLAQELRPQIQELLHSEHLGPSELEAPAPGGSSEDKGGLQPPDSKDADTPMTLPKGSTEQDAASPEKEKMNPLEQYERKVNASVPRGFPFHSSEIQRDELAPAGTGVSREAVSGLLIMGAGGGSLIVLSMLLLRRKKPYGAISHGVVEVDPMLTLEEQQLRELQRHGYENPTYRFLEERP
On to B1, for which the “XGAL (rate and intensity of coloration of colonies on Xgal)” value (from here on “XGAL”) is on record as “L (L = Low blue in 5-7 days)”.

B2: Human alpha enolase: human HRt interacting partner, GenBank M14328, SEQ ID NO:32/33 (protein, listed as Homo sapiens)
chain: DGEPCFSCLYGNGPHPPAPQPSSRFNDAPAADKEPSVVQFCEFVSAPEVSRWAGPIIDVLLDYVGNVQLCSRLKEHIDSFEDWAVIKEKAEPPRPLAHLCRLRVRKAIGKYRIKLLDTLPLPGRLIRYLKYENTQ
With B2, the “XGAL” value was “M (M = Medium blue in 3-5 days)”.

B3: Human quinone oxidoreductase(NQO2): human HRt interacting partner, GenBank J02888, SEQ ID NO:40/41 (protein, listed as Homo sapiens)
chain: PDSNAIRPQLVPHHRTTQQEAGGTMTSATQSARAFSRAPPQTSLWPALPSSLELELLQRQPQQASLHIEVAGPIAQTRETHRELYVFIFLL
B3: the “XGAL” value is reported as “M (M = Medium blue in 3-5 days)”.

B4: Human hypothalamus protein HSMNP1: human HRt interacting partner, GenBank AF220191, SEQ ID NO:30/31 (protein, listed as Homo sapiens)
chain: DRRFSRSAIPEQIISSTLSSPSSNAPDPCAKETVLSALKEKKKKRTVEEEDQIFLDGQENKRSCLVDGLTDASSAFKVPRPGPDTLQFTVDVFHFANDSRNMIYITCHLKVTLAEQDPDELNKACSFSKPSNSWFPVEGPADICQCCNKGDCGTPSHSRRQPRVVSQWSTSASRNRRHVTEEADVTVGATDLPGQEW
As for B4, the “XGAL” value is given as “M (M = Medium blue in 3-5 days)”.

B5: Human CGI-106 protein: human HRt interacting partner, GenBank AF151864, SEQ ID NO:28/29 (protein, listed as Homo sapiens)
chain: DEDTEGFGVPRHDPLPDPLKVPPPLPDPSSICMVDPEMLPPKTARQTENVSRTRKPLARPNSRAAAPKATPVAAAKTKGLAGGDRASRPLSARSEPSEKGGRAPLSRKSSTPKTATRGPSGSASSRPGVSATPPKSPVYLDLAYLPSGSSAHLVDEEFFQRVRALCYVISGQDQRKEEGMRAVLDALLASKQHWDRDLQVTLIPTFDSVAMHTWYAETHAR
B5: the “XGAL” value is given as “M (M = Medium blue in 3-5 days)”.

B6: Human POM-ZP3: human HRt interacting partner, GenBank U10099, SEQ ID NO:36/37 (protein, listed as Homo sapiens)
chain: LEQKLALAERIRGHVLSLALQMYGCRVIQKALEFIPSDQQNEMVRELDGHVLKCVKDQNGNHVVQKCIECVQPQSLQFIIDAFKGQVFALSTHP
In the case of B6, the “XGAL” value is listed as “M (M = Medium blue in 3-5 days)”.

B7: Human pumilio(PUMH1): human HRt interacting partner, GenBank D43951, SEQ ID NO:44/45 (protein, UniProt Q14671 2-1186, looked up)
Pumilio homolog 1: SVACVLKRKAVLWQDSFSPHLKHHPQEPANPNMPVVLTSGTGSQAQPQPAANQALAAGTHSSPVPGSIGVAGRSQDDAMVDYFFQRQHGEQLGGGGSGGGGYNNSKHRWPTGDNIHAEHQVRSMDELNHDFQALALEGRAMGEQLLPGKKFWETDESSKDGPKGIFLGDQWRDSAWGTSDHSVSQPIMVQRRPGQSFHVNSEVNSVLSPRSESGGLGVSMVEYVLSSSPGDSCLRKGGFGPRDADSDENDKGEKKNKGTFDGDKLGDLKEEGDVMDKTNGLPVQNGIDADVKDFSRTPGNCQNSANEVDLLGPNQNGSEGLAQLTSTNGAKPVEDFSNMESQSVPLDPMEHVGMEPLQFDYSGTQVPVDSAAATVGLFDYNSQQQLFQRPNALAVQQLTAAQQQQYALAAAHQPHIGLAPAAFVPNPYIISAAPPGTDPYTAGLAAAATLGPAVVPHQYYGVTPWGVYPASLFQQQAAAAAAATNSANQQTTPQAQQGQQQVLRGGASQRPLTPNQNQQGQQTDPLVAAAAVNSALAFGQGLAAGMPGYPVLAPAAYYDQTGALVVNAGARNGLGAPVRLVAPAPVIISSSAAQAAVAAAAASANGAAGGLAGTTNGPFRPLGTQQPQPQPQQQPNNNLASSSFYGNNSLNSNSQSSSLFSQGSAQPANTSLGFGSSSSLGATLGSALGGFGTAVANSNTGSGSRRDSLTGSSDLYKRTSSSLTPIGHSFYNGLSFSSSPGPVGMPLPSQGPGHSQTPPPSLSSHGSSSSLNLGGLTNGSGRYISAAPGAEAKYRSASSASSLFSPSSTLFSSSRLRYGMSDVMPSGRSRLLEDFRNNRYPNLQLREIAGHIMEFSQDQHGSRFIQLKLERATPAERQLVFNEILQAAYQLMVDVFGNYVIQKFFEFGSLEQKLALAERIRGHVLSLALQMYGCRVIQKALEFIPSDQQNEMVRELDGHVLKCVKDQNGNHVVQKCIECVQPQSLQFIIDAFKGQVFALSTHPYGCRVIQRILEHCLPDQTLPILEELHQHTEQLVQDQYGNYVIQHVLEHGRPEDKSKIVAEIRGNVLVLSQHKFASNVVEKCVTHASRTERAVLIDEVCTMNDGPHSALYTMMKDQYANYVVQKMIDVAEPGQRKIVMHKIRPHIATLRKYTYGKHILAKLEKYYMKNGVDLGPICGPPNGII
Turning to B7, the “XGAL” value is recorded as “M (M = Medium blue in 3-5 days)”.

B8: Human VPS41: human HRt interacting partner, GenBank U87309, SEQ ID NO:46/47 (protein, UniProt P49754 1-854, looked up)
Vacuolar protein …: MAEAEEQETGSLEESTDESEEEESEEEPKLKYERLSNGVTEILQKDAASCMTVHDKFLALGTHYGKVYLLDVQGNITQKFDVSPVKINQISLDESGEHMGVCSEDGKVQVFGLYSGEEFHETFDCPIKIIAVHPHFVRSSCKQFVTGGKKLLLFERSWMNRWKSAVLHEGEGNIRSVKWRGHLIAWANNMGVKIFDIISKQRITNVPRDDISLRPDMYPCSLCWKDNVTLIIGWGTSVKVCSVKERHASEMRDLPSRYVEIVSQFETEFYISGLAPLCDQLVVLSYVKEISEKTEREYCARPRLDIIQPLSETCEEISSDALTVRGFQENECRDYHLEYSEGESLFYIVSPRDVVVAKERDQDDHIDWLLEKKKYEEALMAAEISQKNIKRHKILDIGLAYINHLVERGDYDIAARKCQKILGKNAALWEYEVYKFKEIGQLKAISPYLPRGDPVLKPLIYEMILHEFLESDYEGFATLIREWPGDLYNNSVIVQAVRDHLKKDSQNKTLLKTLAELYTYDKNYGNALEIYLTLRHKDVFQLIHKHNLFSSIKDKIVLLMDFDSEKAVDMLLDNEDKISIKKVVEELEDRPELQHVYLHKLFKRDHHKGQRYHEKQISLYAEYDRPNLLPFLRDSTHCPLEKALEICQQRNFVEETVYLLSRMGNSRSALKMIMEELHDVDKAIEFAKEQDDGELWEDLILYSIDKPPFITGLLNNIGTHVDPILLIHRIKEGMEIPNLRDSLVKILQDYNLQILLREGCKKILVADSLSLLKKMHRTQMKGVLVDEENICESCLSPILPSDAAKPFSVVVFHCRHMFHKECLPMPSMNSAAQFCNICSAKNRGPGSAILEMKK
Regarding B8, the “XGAL” value is reported as “M (M = Medium blue in 3-5 days)”.

Source of the values: patent publication US20040086945A1, “Hairless protein-interacting partner complexes and methods thereto” (The Procter & Gamble Company, priority 2002, published 2004).
